Measured values reported in patent US20180087039A1.
No end group written: not given here.

Target: fibrinogen (free fibrinogen in rat plasma) (rat) (UniProt P06399)
Experiment: cell-based or functional assay

free fibrinogen level in plasma after incubation ex vivo with RTL PA (80 µM): < 36 mg/dL
Binder: RTLAFVRFKKKAAVV-{K(lauroyl)-NH2} (also: self-assembled nanofiber) [RTL PA nanofiber (…(K)-C12 peptide amphiphile)]
